Measurements: the RNAGym collection of RNA variant scans (doi:10.7554/elife.90254)

B1: LINE1-full (parent)
chain: UACGUAGGUGGUUUUCCCCUGAUAGUGCUAAGGGGGCCUGGAAGUUUGGACUGGGCAGAGCUCAACACAGCGUGGCAAAGUGGCUGUGGCUAGACUGCCUCUCUGGAUUCCUCGUCACUCAGCAGGGCAUCUCUGAGAGAAAUGCC

Variants of: B1
Test: self-cleavage, relative activity (ratio to wild type); higher = more cleavage; in vitro, sequencing; the parent is a self-cleaving ribozyme
For U14C U87A, the self-cleavage was 0.15.
Variant U26A A31G has a self-cleavage of 0.81.
U39C U85A showed a self-cleavage of 0.05.
For U15G A50G, the self-cleavage was 0.18.
Work on C56A U100C yielded a self-cleavage of 0.1.
For G4A U9C, the self-cleavage was 0.69.
With U5A U26A the self-cleavage was 1.37.
Variant C95A U104C has a self-cleavage of 0.08.
Work on G35U U100A yielded a self-cleavage of 0.78.
For A30G U112A, the self-cleavage was 1.1.
For U14C U102C, the self-cleavage was 1.09.
Work on U5A U13C yielded a self-cleavage of 0.99.
In the case of C71G A141G, the self-cleavage is reported as 0.4.
Work on U13C U46A yielded a self-cleavage of 1.13.
U20C C113U gave a self-cleavage of 1.62.
With A67G C120U the self-cleavage was 0.45.
With A2U U87A the self-cleavage was 0.08.
With G74C U132A the self-cleavage was 1.46.
With A42U A141U the self-cleavage was 0.81.
U45C A117G gave a self-cleavage of 0.
In the case of U15A A42G, the self-cleavage is reported as 1.31.
With A65G A94G the self-cleavage was 0.03.
In the case of U9A U15A, the self-cleavage is reported as 1.07.
With U23G U87A the self-cleavage was 0.11.
G74A U115C showed a self-cleavage of 1.46.
With U47C G89A the self-cleavage was 0.02.
U9C U87C showed a self-cleavage of 0.42.
Variant U52C U104C has a self-cleavage of 1.1.
G122A U143C showed a self-cleavage of 1.11.
For A50G A136G, the self-cleavage was 1.04.
Work on U130A A136G yielded a self-cleavage of 1.46.
G106A showed a self-cleavage of 1.48.
Work on A64U U104C yielded a self-cleavage of 0.62.
U47G C113A gave a self-cleavage of 1.6.
Variant U45C U81C has a self-cleavage of 0.94.
C18A A57G gave a self-cleavage of 1.29.
In the case of A22U G60U, the self-cleavage is reported as 0.05.
Work on G11A U52G yielded a self-cleavage of 1.56.
Variant A24G A42G has a self-cleavage of 1.11.
In the case of U115A U132A, the self-cleavage is reported as 1.03.
For C37U U102A, the self-cleavage was 1.19.
Variant C38A A140U has a self-cleavage of 1.1.
For A65G G135A, the self-cleavage was 0.1.
With A79U U104C the self-cleavage was 2.47.
A77G U143G showed a self-cleavage of 2.99.
Variant A50C A57U has a self-cleavage of 0.
With C3U U62G the self-cleavage was 0.07.
With G53U C99U the self-cleavage was 0.13.
With A78G U102A the self-cleavage was 1.24.
U23C G114C gave a self-cleavage of 2.07.
U112C U134C showed a self-cleavage of 1.23.
G35A A64U gave a self-cleavage of 0.31.
U45A U73C showed a self-cleavage of 1.32.
Work on U81C A117G yielded a self-cleavage of 1.21.
G89A A140U gave a self-cleavage of 0.02.
G11U A136U showed a self-cleavage of 1.26.
Variant U1C A141G has a self-cleavage of 0.97.
In the case of U39C U134A, the self-cleavage is reported as 0.86.
Work on U39A A136G yielded a self-cleavage of 1.49.
U81C U130G showed a self-cleavage of 1.84.
C3A U12G gave a self-cleavage of 0.81.
For U100G G114A, the self-cleavage was 1.77.
With U26A G34U the self-cleavage was 0.83.
Work on A77U U100A yielded a self-cleavage of 0.91.
With U13A C118U the self-cleavage was 0.52.
Variant U39C U119A has a self-cleavage of 1.08.
With U14C U81A the self-cleavage was 1.34.
With U45C C120G the self-cleavage was 2.05.
U20C A141G gave a self-cleavage of 1.54.
In the case of A57U A124U, the self-cleavage is reported as 0.09.
With U96A A140G the self-cleavage was 0.06.
In the case of U20A U23C, the self-cleavage is reported as 0.83.
In the case of A24G U73C, the self-cleavage is reported as 1.68.
A31U U130C gave a self-cleavage of 1.23.
In the case of C66U A138U, the self-cleavage is reported as 0.03.
A94C showed a self-cleavage of 0.06.
C19G C56U gave a self-cleavage of 0.22.
With U45G U62C the self-cleavage was 0.02.
A92C C128U showed a self-cleavage of 0.31.
Work on G8A G48A yielded a self-cleavage of 0.44.
Variant U14C C38U has a self-cleavage of 1.09.
Work on U1A U14C yielded a self-cleavage of 1.71.
In the case of G106A U134C, the self-cleavage is reported as 1.08.
For A57U C84A, the self-cleavage was 0.21.
Work on A59G A78U yielded a self-cleavage of 0.1.
With A22G A69U the self-cleavage was 0.14.
Work on A57G A141G yielded a self-cleavage of 0.72.
U39C G135A gave a self-cleavage of 1.2.
Work on U85A G127A yielded a self-cleavage of 0.06.
A64G A117U showed a self-cleavage of 0.26.
Work on U73A G82A yielded a self-cleavage of 1.74.
Work on A22G A79U yielded a self-cleavage of 1.51.
U45C A50G gave a self-cleavage of 1.
U45A A59G showed a self-cleavage of 0.05.
For A64G G72U, the self-cleavage was 0.12.
A79G C95U gave a self-cleavage of 0.08.
With C98U A136G the self-cleavage was 0.55.
Variant A65G C111U has a self-cleavage of 0.06.
For G35U U91C, the self-cleavage was 0.52.
For U20C U23A, the self-cleavage was 1.81.
With G21U U81C the self-cleavage was 1.01.
In the case of A24G U29A, the self-cleavage is reported as 1.3.
In the case of U23C U81A, the self-cleavage is reported as 1.85.
With U5C C66U the self-cleavage was 0.13.
G33U U96A gave a self-cleavage of 0.06.
G114A A117U gave a self-cleavage of 1.34.
Work on U26A A92U yielded a self-cleavage of 0.61.
With U87A U109C the self-cleavage was 0.11.
For A141G G144A, the self-cleavage was 1.28.
For A69G C128A, the self-cleavage was 0.14.
With A59G U87C the self-cleavage was 0.11.
Work on U73A A121G yielded a self-cleavage of 1.93.
In the case of U91C A107G, the self-cleavage is reported as 0.73.
U45C G72A gave a self-cleavage of 1.25.
In the case of U134C G139A, the self-cleavage is reported as 1.29.
Variant U26C G89A has a self-cleavage of 0.03.
U15C G127U gave a self-cleavage of 1.23.
With U12C A69C the self-cleavage was 0.09.
In the case of A78U U134C, the self-cleavage is reported as 2.05.
U20A A42G gave a self-cleavage of 1.06.
U47A C84U gave a self-cleavage of 0.09.
Work on C61U U73C yielded a self-cleavage of 0.02.
Work on A22G A30U yielded a self-cleavage of 0.58.
In the case of U52A A69U, the self-cleavage is reported as 0.08.
A57U U143C showed a self-cleavage of 0.14.
Work on U15C U23C yielded a self-cleavage of 0.94.
Work on A77G U96G yielded a self-cleavage of 0.16.
A117G A121G showed a self-cleavage of 1.38.
Variant U14C U46C has a self-cleavage of 1.3.
Variant U20C C95A has a self-cleavage of 0.09.
In the case of A107U U115C, the self-cleavage is reported as 1.55.
Work on U46A U52G yielded a self-cleavage of 1.33.
Work on G126A C133A yielded a self-cleavage of 1.7.
Work on U91G A129U yielded a self-cleavage of 0.05.
G83A U115C showed a self-cleavage of 1.47.
U52C C99U showed a self-cleavage of 0.64.
Work on A65G U96C yielded a self-cleavage of 0.08.
In the case of U26A G80U, the self-cleavage is reported as 1.21.
With A43U U108A the self-cleavage was 1.46.
In the case of G114U A142C, the self-cleavage is reported as 0.95.
Work on U96A C110U yielded a self-cleavage of 0.08.
C95U U108C showed a self-cleavage of 0.42.
Variant G36A C118G has a self-cleavage of 1.04.
G88U A142G showed a self-cleavage of 0.
Work on G74A U119A yielded a self-cleavage of 0.84.
A22U A67C gave a self-cleavage of 0.05.
In the case of U14A U87C, the self-cleavage is reported as 0.12.
Work on A64C U85C yielded a self-cleavage of 0.02.
U23A C146U gave a self-cleavage of 1.27.
U108G A121U showed a self-cleavage of 1.86.
Variant A2U U85G has a self-cleavage of 0.14.
Work on A121G yielded a self-cleavage of 1.56.
A65G A92U showed a self-cleavage of 0.1.
For A43C A138G, the self-cleavage was 1.02.
For C84G G93A, the self-cleavage was 0.08.
A69U G72A gave a self-cleavage of 0.04.
U132C G139U showed a self-cleavage of 2.66.
Work on U91A A94G yielded a self-cleavage of 0.09.
With U73A U85A the self-cleavage was 0.05.
Variant C19U U87C has a self-cleavage of 0.06.
A64U U91C gave a self-cleavage of 0.18.
For U130A C133U, the self-cleavage was 2.3.
For A57G U87C, the self-cleavage was 0.11.
Work on U45A G105A yielded a self-cleavage of 1.56.
Variant U15C G82A has a self-cleavage of 1.92.
Work on U87C U108A yielded a self-cleavage of 0.15.
In the case of U14C U134G, the self-cleavage is reported as 1.23.
